The term Ki denotes a measure of affinity in units of concentration, obtained from inhibition or displacement. A high value points to a looser hold on the target.

Here are results for two substances from publication PMC5922973, “Topoisomerase VI senses and exploits both DNA crossings and bends to facilitate strand passage” (eLife, 2018).

In data set [1] the target is T1, topo VI holoenzyme WT (Methanosarcina mazei) (UniProt Q8PUB7+Q8PUB8).
T1 sequence 1: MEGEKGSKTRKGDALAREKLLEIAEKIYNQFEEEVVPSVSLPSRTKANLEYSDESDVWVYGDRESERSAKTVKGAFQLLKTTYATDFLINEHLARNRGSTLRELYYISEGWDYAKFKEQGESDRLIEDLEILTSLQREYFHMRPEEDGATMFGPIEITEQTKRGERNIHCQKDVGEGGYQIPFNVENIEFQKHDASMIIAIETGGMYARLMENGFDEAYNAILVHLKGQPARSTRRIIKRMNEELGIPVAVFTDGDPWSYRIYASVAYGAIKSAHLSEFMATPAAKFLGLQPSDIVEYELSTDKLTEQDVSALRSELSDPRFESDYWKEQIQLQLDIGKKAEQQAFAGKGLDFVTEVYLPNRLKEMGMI
T1 sequence 2: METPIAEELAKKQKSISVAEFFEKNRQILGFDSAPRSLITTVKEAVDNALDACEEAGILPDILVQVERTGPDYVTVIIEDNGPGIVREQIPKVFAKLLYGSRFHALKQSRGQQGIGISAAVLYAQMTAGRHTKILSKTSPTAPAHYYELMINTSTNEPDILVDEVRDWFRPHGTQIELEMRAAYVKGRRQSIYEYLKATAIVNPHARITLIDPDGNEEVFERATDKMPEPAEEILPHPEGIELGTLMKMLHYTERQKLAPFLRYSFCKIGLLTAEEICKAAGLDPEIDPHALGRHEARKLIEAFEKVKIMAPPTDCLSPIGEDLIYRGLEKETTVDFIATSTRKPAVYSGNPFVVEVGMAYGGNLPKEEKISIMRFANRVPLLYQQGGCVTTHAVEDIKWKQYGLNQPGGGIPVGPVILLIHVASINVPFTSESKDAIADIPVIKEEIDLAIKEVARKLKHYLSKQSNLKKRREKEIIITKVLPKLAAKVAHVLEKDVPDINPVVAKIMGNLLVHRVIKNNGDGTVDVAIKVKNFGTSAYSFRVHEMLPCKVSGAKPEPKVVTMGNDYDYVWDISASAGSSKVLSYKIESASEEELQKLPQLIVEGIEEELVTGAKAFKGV
Nature of the data set: fluorescence anisotropy. The following applies: FA: 20 nM probe, 50 mM K-glutamate, 20 mM HEPES-KOH pH 7.5, 10 mM MgCl2, 5% glycerol, 1 mM TCEP, 0.1 mg/mL BSA; incubated on ice, read at ambient temperature ….

For data set [2], the target named is T2, topo VI KGRR-EEE K186E;R188E;R189E (Methanosarcina mazei) (UniProt Q8PUB7+Q8PUB8).
T2 sequence 1: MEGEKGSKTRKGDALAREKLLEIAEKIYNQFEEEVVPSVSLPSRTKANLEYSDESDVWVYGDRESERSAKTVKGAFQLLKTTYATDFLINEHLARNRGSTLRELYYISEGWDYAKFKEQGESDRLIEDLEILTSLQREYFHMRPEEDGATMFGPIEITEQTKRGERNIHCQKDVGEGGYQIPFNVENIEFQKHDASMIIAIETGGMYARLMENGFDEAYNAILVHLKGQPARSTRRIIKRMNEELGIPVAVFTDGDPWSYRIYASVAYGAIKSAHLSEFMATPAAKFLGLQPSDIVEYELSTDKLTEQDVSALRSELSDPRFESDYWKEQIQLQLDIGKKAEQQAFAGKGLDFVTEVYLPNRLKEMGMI
T2 sequence 2: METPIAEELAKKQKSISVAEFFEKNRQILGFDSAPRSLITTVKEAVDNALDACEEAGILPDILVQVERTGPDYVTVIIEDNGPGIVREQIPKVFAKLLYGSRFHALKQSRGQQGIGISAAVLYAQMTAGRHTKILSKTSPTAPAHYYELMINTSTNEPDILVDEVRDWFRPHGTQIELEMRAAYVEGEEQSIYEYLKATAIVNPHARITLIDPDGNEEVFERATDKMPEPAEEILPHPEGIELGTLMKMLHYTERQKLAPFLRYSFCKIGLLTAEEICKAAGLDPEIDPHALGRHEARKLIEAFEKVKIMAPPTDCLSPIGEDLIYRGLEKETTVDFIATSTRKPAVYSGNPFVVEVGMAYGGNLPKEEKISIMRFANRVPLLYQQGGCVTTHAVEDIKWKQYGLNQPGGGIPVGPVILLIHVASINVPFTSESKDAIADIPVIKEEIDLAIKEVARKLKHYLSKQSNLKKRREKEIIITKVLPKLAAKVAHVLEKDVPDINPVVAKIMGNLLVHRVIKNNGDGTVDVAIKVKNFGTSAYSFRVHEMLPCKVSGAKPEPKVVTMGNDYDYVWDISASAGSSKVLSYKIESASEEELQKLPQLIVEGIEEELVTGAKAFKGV
Nature of the data set: competition (fluorescence anisotropy). Particulars: vs FAM 70 bp; FA: 20 nM probe, 50 mM K-glutamate, 20 mM HEPES-KOH pH 7.5, 10 mM MgCl2, 5% glycerol, 1 mM TCEP, 0.1 mg/mL BSA; incubated on ice, read at ambient temperature …. Background: In fluorescence polarisation assays a small probe gives low polarisation when free and higher when bound to something large.

Data set [3] concerns the target T1, topo VI holoenzyme WT (Methanosarcina mazei). Nature of the data set: competition (fluorescence anisotropy). The following applies: vs FAM 70 bp; FA: 20 nM probe, 50 mM K-glutamate, 20 mM HEPES-KOH pH 7.5, 10 mM MgCl2, 5% glycerol, 1 mM TCEP, 0.1 mg/mL BSA; incubated on ice, read at ambient temperature ….
For data set [4], the target named is T3, topo VI H2TH-AAA R263A;K268A;K308A (Methanosarcina mazei) (UniProt Q8PUB7+Q8PUB8).
T3 sequence 1: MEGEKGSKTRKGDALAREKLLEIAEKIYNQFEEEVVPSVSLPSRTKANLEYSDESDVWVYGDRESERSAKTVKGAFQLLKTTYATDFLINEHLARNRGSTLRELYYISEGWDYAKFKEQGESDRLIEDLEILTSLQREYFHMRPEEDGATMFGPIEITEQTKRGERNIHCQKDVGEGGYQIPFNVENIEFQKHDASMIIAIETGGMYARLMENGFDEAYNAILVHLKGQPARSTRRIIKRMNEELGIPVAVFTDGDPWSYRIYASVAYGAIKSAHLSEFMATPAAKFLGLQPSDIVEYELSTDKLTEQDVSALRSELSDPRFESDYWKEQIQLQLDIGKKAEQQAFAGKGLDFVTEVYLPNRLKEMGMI
T3 sequence 2: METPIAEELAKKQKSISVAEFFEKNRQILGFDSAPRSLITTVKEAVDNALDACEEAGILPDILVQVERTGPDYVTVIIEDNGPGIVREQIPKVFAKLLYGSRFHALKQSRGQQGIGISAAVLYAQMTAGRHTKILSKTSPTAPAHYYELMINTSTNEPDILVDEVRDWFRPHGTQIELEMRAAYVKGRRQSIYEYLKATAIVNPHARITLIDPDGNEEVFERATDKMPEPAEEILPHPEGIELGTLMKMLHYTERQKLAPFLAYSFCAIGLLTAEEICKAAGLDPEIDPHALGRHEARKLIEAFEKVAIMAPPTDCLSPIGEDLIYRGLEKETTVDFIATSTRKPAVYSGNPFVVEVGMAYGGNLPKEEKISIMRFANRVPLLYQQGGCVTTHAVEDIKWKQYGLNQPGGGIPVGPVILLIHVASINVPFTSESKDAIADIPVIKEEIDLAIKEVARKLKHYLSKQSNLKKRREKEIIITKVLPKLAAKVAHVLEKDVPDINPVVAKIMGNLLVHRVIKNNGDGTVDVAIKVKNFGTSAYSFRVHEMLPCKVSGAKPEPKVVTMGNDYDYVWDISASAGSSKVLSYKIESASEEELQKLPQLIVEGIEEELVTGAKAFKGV
Nature of the data set: competition (fluorescence anisotropy). Particulars: vs FAM 70 bp; FA: 20 nM probe, 50 mM K-glutamate, 20 mM HEPES-KOH pH 7.5, 10 mM MgCl2, 5% glycerol, 1 mM TCEP, 0.1 mg/mL BSA; incubated on ice, read at ambient temperature ….

Data set [5] addresses T4, topo VI H2TH-EEE R263E;K268E;K308E (Methanosarcina mazei) (UniProt Q8PUB7+Q8PUB8).
T4 sequence 1: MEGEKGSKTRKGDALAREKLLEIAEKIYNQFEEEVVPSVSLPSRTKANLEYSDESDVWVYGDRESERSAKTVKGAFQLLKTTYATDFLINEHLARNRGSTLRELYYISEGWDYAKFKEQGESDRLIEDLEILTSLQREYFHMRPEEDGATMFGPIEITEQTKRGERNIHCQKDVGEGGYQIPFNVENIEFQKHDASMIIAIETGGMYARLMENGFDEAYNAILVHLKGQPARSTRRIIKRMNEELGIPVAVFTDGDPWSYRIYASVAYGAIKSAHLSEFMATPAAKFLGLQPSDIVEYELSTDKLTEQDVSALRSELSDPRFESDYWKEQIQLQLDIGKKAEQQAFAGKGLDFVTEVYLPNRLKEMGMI
T4 sequence 2: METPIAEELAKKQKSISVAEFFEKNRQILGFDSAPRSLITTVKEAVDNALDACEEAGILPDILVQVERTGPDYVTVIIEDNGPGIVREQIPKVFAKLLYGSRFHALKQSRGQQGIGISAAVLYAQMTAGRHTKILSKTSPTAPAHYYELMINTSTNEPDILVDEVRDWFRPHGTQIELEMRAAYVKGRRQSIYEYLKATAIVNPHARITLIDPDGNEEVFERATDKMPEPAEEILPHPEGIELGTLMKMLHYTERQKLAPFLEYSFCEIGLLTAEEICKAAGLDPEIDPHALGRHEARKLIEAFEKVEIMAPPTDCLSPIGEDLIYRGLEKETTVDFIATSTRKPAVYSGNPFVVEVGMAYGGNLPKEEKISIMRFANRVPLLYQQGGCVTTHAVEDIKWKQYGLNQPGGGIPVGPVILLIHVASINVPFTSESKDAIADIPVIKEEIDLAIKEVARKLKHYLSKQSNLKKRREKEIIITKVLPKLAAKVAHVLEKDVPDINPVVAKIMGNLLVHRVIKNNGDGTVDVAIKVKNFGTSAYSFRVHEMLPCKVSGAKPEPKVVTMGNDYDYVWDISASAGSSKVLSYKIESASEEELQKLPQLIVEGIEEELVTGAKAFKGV
Nature of the data set: competition (fluorescence anisotropy). The following applies: vs FAM 70 bp; FA: 20 nM probe, 50 mM K-glutamate, 20 mM HEPES-KOH pH 7.5, 10 mM MgCl2, 5% glycerol, 1 mM TCEP, 0.1 mg/mL BSA; incubated on ice, read at ambient temperature ….

The target of data set [6] is T5, topo VI KGRR-AAA K186A;R188A;R189A (Methanosarcina mazei) (UniProt Q8PUB7+Q8PUB8).
T5 sequence 1: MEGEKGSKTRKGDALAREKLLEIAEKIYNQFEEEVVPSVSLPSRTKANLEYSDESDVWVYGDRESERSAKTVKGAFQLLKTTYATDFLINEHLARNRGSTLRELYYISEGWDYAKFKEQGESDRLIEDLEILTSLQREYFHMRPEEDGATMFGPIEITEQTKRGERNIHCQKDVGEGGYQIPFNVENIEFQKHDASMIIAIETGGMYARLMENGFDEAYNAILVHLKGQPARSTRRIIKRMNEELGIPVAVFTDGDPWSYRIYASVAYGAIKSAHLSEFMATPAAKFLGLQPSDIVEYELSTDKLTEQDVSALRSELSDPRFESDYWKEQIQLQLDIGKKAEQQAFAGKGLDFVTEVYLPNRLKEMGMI
T5 sequence 2: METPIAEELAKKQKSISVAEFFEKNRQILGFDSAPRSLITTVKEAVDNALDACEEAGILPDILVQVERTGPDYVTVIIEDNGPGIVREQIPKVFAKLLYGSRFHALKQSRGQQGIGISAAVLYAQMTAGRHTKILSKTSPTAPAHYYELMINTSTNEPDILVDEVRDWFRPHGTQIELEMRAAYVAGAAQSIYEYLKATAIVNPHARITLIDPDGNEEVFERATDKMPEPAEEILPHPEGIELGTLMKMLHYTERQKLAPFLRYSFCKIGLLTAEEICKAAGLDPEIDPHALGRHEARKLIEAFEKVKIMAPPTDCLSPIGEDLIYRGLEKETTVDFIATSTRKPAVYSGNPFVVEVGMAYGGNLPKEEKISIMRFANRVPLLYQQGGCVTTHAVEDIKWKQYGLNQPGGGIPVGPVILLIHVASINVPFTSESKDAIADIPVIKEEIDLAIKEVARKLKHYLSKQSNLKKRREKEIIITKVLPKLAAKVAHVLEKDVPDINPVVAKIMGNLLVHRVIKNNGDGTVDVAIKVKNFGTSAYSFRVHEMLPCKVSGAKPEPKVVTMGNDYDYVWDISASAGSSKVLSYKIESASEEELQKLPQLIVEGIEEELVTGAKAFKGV
Nature of the data set: competition (fluorescence anisotropy). Particulars: vs FAM 70 bp; FA: 20 nM probe, 50 mM K-glutamate, 20 mM HEPES-KOH pH 7.5, 10 mM MgCl2, 5% glycerol, 1 mM TCEP, 0.1 mg/mL BSA; incubated on ice, read at ambient temperature ….

In the case of 80 bp duplex, the binding signal (fold Kd of 60 bp duplex) in data set [1] amounted to 2.
For the substance pSG483 negatively supercoiled plasmid, the Ki in data set [2] is 14.7 nM; in data set [3] it was 0.6 nM; in data set [4] it was 1.3 nM; in data set [5], 10 nM; in data set [6] it was 7.2 nM.
